{
  "source": "patent US20160032013",
  "proteins": {"B1": {"name": "sHepsin (extracellular domain of human recombinant hepsin with C-terminal His-tag) (protein)", "chain": "RSDQEPLYPVQVSSADARLMVFDKTEGTWRLLCSSRSNARVAGLSCEEMGFLRALTHSELDVRTAGANGTSGFFCVDEGRLPHTQRLLEVISVCDCPRGRFLAAICQDCGRRKLPVDDDDKIVGGRDTSLGRWPWQVSLRYDGAHLCGGSLLSGDWVLTAAHCFPERNRVLSRWRVFAGAVAQASPHGLQLGVQAVVYHGGYLPFRDPNSEENSNDIALVHLSSPLPLTEYIQPVCLPAAGQALVDGKICTVTGWGNTQYYGQQAGVLQEARVPIISNDVCNGADFYGNQIKPKMFCAGYPEGGIDACQGDSGGPFVCEDSISRTPRWRLCGIVSWGTGCALAQKPGVYTKVSDFREWIFQAIKTHSEASGMVTQLHHHHHHHH"}},
  "key": {"[1]": {"target": "Recombinant human pro-MSP 689C (C672A, R689C, His tag), uncleaved single chain", "sequence (chain, as listed by the source C672A R689C)": "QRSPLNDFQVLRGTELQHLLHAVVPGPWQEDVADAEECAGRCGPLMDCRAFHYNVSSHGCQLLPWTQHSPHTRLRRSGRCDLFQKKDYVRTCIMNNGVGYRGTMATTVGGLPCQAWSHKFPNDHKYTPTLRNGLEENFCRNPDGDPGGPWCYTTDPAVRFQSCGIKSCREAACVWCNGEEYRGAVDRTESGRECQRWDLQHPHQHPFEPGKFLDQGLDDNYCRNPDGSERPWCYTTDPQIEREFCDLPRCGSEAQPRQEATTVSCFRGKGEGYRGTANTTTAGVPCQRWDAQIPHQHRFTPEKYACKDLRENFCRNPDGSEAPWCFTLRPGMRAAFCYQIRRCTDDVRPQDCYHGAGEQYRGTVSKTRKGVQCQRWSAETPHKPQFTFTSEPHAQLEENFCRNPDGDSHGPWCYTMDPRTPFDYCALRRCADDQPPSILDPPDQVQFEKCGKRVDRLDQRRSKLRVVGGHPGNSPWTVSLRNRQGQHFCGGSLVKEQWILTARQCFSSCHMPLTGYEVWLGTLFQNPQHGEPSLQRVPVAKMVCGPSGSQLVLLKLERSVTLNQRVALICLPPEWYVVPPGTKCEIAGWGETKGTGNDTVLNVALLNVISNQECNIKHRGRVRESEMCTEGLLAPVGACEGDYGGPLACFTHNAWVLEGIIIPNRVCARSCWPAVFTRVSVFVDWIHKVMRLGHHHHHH"}, "[2]": {"target": "Recombinant human pro-MSP 689R (C672A, His tag), uncleaved single chain", "sequence (chain, as listed by the source C672A)": "as the sequence (chain, as listed by the source C672A R689C) above, with C671R counted along it"}},
  "data": [
    {"protein": "B1", "values": [
      {"measurement": "proteolytic cleavage of pro-MSP by hepsin, SDS-PAGE under reducing conditions, 1 h at 37 C", "setting": "[1]", "value": "No obvious difference was observed in the concentration of hepsin required to completely cleave these variants over a 1-hour period"},
      {"measurement": "proteolytic cleavage of pro-MSP by hepsin, SDS-PAGE under reducing conditions, 1 h at 37 C", "setting": "[2]", "value": "No obvious difference was observed in the concentration of hepsin required to completely cleave these variants over a 1-hour period"}
    ]}
  ]
}
